Experimental data as given in patent EP4729537A1 (Universitat Politècnica de València, dated 2024).

B1: β-lactamase inhibitor B6 antibody (VHH)
VHH: QVQLQESGGGLVQAGGSLRLSCAASGTISAVSGMGWYRQAPGKEREFVASINRGSTTNYADSVKGRFTISRDNAKNTVYLQMNSLKPEDTAVYYCAALHGTGRVHVYWGQGTQVTVSS
notes: sdAb from a synthetic naive yeast display library; expressed from pET26b in the E. coli periplasm and purified by chromatography; also called sdAb B6
B2: β-lactamase inhibitor B4 antibody (VHH)
VHH: QVQLQESGGGLVQAGGSLRLSCAASGTIFAQDYMGWYRQAPGKEREFVASIAYGTITYYADSVKGRFTISRDNAKNTVYLQMNSLKPEDTAVYYCAVYPTPVTDYIYWGQGTQVTVSS
notes: sdAb from a synthetic naive yeast display library; expressed from pET26b in the E. coli periplasm and purified by chromatography; also called sdAb B4
B3: β-lactamase inhibitor B3 antibody (VHH)
VHH: QVQLQESGGGLVQAGGSLRLSCAASGTIFYYPYMGWYRQAPGKEREFVAGIDYGSTTYYADSVKGRFTISRDNAKNTVYLQMNSLKPEDTAVYYCAVVYLVTRKGASQQDEIYSYWGQGTQVTVSS
notes: sdAb from a synthetic naive yeast display library; expressed from pET26b in the E. coli periplasm and purified by chromatography; also called sdAb B3
B4: β-lactamase inhibitor B5 antibody (VHH)
VHH: QVQLQESGGGLVQAGGSLRLSCAASGNISDLGTMGWYRQAPGKEREFVAGIGTGSNTYYADSVKGRFTISRDNAKNTVYLQMNSLKPEDTAVYYCAVIAGRSYWIYFYYWGQGTQVTVSS
notes: sdAb from a synthetic naive yeast display library; expressed from pET26b in the E. coli periplasm and purified by chromatography; also called sdAb B5
B5: single domain antibody B1 (VHH)
VHH: QVQLQESGGGLVQAGGSLRLSCAASGNIFTVSSMGWYRQAPGKEREFVAAISDGATTNYADSVKGRFTISRDNAKNTVYLQMNSLKPEDTAVYYCAAYASRVGLTVYWGQGTQVTVSS
notes: sdAb from a synthetic naive yeast display library; expressed from pET26b in the E. coli periplasm and purified by chromatography; also called sdAb B1
B6: β-lactamase inhibitor B2 antibody (VHH)
VHH: QVQLQESGGGLVQAGGSLRLSCAASGTIFVYPYMGWYRQAPGKEREFVAGIGQGATTYYADSVKGRFTISRDNAKNTVYLQMNSLKPEDTAVYYCAAYRYRDDVRRYGIDRYHTYWGQGTQVTVSS
notes: sdAb from a synthetic naive yeast display library; expressed from pET26b in the E. coli periplasm and purified by chromatography; also called sdAb B2

What was measured:
[1] = molecular target: T1, antigenic protein: class A β-lactamase fragment of Mycobacterium abscessus (Blamab gene) with C-terminal TEV … (Mycobacterium abscessus); assay: cell-based or functional assay
[2] = molecular target: T1, antigenic protein: class A β-lactamase …; assay: nitrocefin hydrolysis assay with purified enzyme, Lineweaver-Burk
[3] = molecular target: T2, KPC-2 from Klebsiella pneumoniae, expressed in the periplasm of E. coli BL21(DE3) (Klebsiella pneumoniae, UniProt Q848S6 25-293); assay: cell-based or functional assay
[4] = molecular target: T3, VIM-2 from Pseudomonas aeruginosa, expressed in the periplasm of E. coli BL21(DE3) (Pseudomonas aeruginosa); assay: cell-based or functional assay
[5] = molecular target: T4, OXA-48 from Klebsiella pneumoniae, expressed in the periplasm of E. coli BL21(DE3) (Klebsiella pneumoniae, UniProt Q6XEC0 23-265, limits assumed); assay: cell-based or functional assay
[6] = molecular target: T2, KPC-2 from Klebsiella pneumoniae, …; assay: nitrocefin assay on E. coli BL21(DE3) cells with the β-lactamase in the periplasm
[7] = molecular target: T3, VIM-2 from Pseudomonas aeruginosa, …; assay: as above
[8] = molecular target: T4, OXA-48 from Klebsiella pneumoniae, …; assay: as above

Binder | Km (µM), with antibody [1] [µM] | Vmax (µM/min), with antibody [1] [µM/min] | Ki [2] [µM] | Ki [6] [nM] | Ki [7] [µM] | Ki [8] [µM] | also measured
B1 | 53.3 | 0.26 | 4.9 |  |  |  | 
B2 | 45.6 | 0.28 | 5.2 |  |  |  | 
B3 | 51.9 | 0.34 | 2.7 |  |  |  | 
B4 | 57.3 | 0.23 | 3.8 | 120 | 68.9 | 30.8 | Km(µM), with B5 [3]: 2.19 µM; Vmax(µM/min), with B5 [3]: 0.5 µM/min; Km(µM), with B5 [4]: 0.97 µM; Vmax(µM/min), with B5 [4]: 0.0084 µM/min; Km(µM), with B5 [5]: 2.26 µM; Vmax(µM/min), with B5 [5]: 0.061 µM/min
B5 | 42.6 | 0.26 | 15.6 |  |  |  | 
B6 | 64.4 | 0.25 | 2.4 | 60 | 2.9 | 10.5 | Km(µM), with B2 [3]: 121 µM; Vmax(µM/min), with B2 [3]: 0.7 µM/min; Km(µM), with B2 [4]: 39.6 µM; Vmax(µM/min), with B2 [4]: 0.017 µM/min; Km(µM), with B2 [5]: 6.62 µM; Vmax(µM/min), with B2 [5]: 0.059 µM/min
